From the supplement of paper PMC9233669
Fewer inactive variants are shown than the library holds.

What was measured:
biotinyl-Phe-oxazolone = assay: self-aminoacylation, catalytic enhancement (BFO) (fold over background); higher = more active; k-Seq, kA / k0A0; sequences stand for … in GGGAAUGGAUCCACAUCUACGAAUUC…UUCACUGCAGACUUGACGAAGCUG
Procedure, shortened: (§1)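 Mutagenized RNA pools with a 21-nt variable region (0.43 μM) were reacted with each biotinyl-aminoacyl-oxazolone at 2–1250 μM for 90 minutes at room temperature, in 50 μL HEPES/NaCl/KCl/MgCl2/CaCl2 buffer containing 5% acetonitrile at pH 6.9–7.0. RNA captured on streptavidin was quantified by triplicate qPCR and by Illumina sequencing. The fraction reacted for each sequence was fit to a pseudo-first-order model with bootstrapping, and catalytic enhancement is the median kA divided by the uncatalyzed rate, taken as the low-activity peak of a bimodal Gaussian fit.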

biotinyl-Ile-oxazolone = assay: self-aminoacylation, catalytic enhancement (BIO) (fold over background); higher = more active; k-Seq, kA / k0A0; sequences stand for … in GGGAAUGGAUCCACAUCUACGAAUUC…UUCACUGCAGACUUGACGAAGCUG
Procedure, shortened: as §1

biotinyl-Met-oxazolone = assay: self-aminoacylation, catalytic enhancement (BMO) (fold over background); higher = more active; k-Seq, kA / k0A0; sequences stand for … in GGGAAUGGAUCCACAUCUACGAAUUC…UUCACUGCAGACUUGACGAAGCUG
Procedure, shortened: as §1

biotinyl-Val-oxazolone = assay: self-aminoacylation, catalytic enhancement (BVO) (fold over background); higher = more active; k-Seq, kA / k0A0; sequences stand for … in GGGAAUGGAUCCACAUCUACGAAUUC…UUCACUGCAGACUUGACGAAGCUG
Procedure, shortened: as §1

biotinyl-Leu-oxazolone = assay: self-aminoacylation, catalytic enhancement (BLO) (fold over background); higher = more active; k-Seq, kA / k0A0; sequences stand for … in GGGAAUGGAUCCACAUCUACGAAUUC…UUCACUGCAGACUUGACGAAGCUG
Procedure, shortened: as §1

biotinyl-Trp-oxazolone = assay: self-aminoacylation, catalytic enhancement (BWO) (fold over background); higher = more active; k-Seq, kA / k0A0; sequences stand for … in GGGAAUGGAUCCACAUCUACGAAUUC…UUCACUGCAGACUUGACGAAGCUG
Procedure, shortened: as §1

Row | Sequence | self-aminoacylation (biotinyl-Phe-oxazolone) | self-aminoacylation (biotinyl-Ile-oxazolone) | self-aminoacylation (biotinyl-Met-oxazolone) | self-aminoacylation (biotinyl-Val-oxazolone) | self-aminoacylation (biotinyl-Leu-oxazolone) | self-aminoacylation (biotinyl-Trp-oxazolone)
1 | AUUACCCAGGUCGUCGAGUGA [Fam2.1 aminoacylation ribozyme variant] | 0.686 | 0.849 | 0.786 | 0.951 | 0.669 | 0.416
2 | AUUACCCCGGUCAGCGAGUGA [Fam2.1 aminoacylation ribozyme variant] | 31.4 | 3.32 | 4.82 | 3.28 | 4.92 | 5.45
3 | AUUACCCCGGUCAUCGAGAGA [Fam2.1 aminoacylation ribozyme variant] | 1.03 | 0.935 | 0.8 | 0.651 | 0.708 | 1.07
4 | AUUACCCCGGUCAUCGAGGGA [Fam2.1 aminoacylation ribozyme variant] | 2.68 | 1.15 | 1.21 | 1.93 | 1.07 | 1.67
5 | AUUACCCCGGUCAUCGAGUGU [Fam2.1 aminoacylation ribozyme variant] | 9.98 | 1.56 | 2.58 | 1.87 | 2.45 | 3.57
6 | AUUACCCCGGUCAUCGCGUGA [Fam2.1 aminoacylation ribozyme variant] | 174 | 11.2 | 23.7 | 11.8 | 24.3 | 23.8
7 | AUUACCCCGGUCCUCGAGUGA [Fam2.1 aminoacylation ribozyme variant] | 25.5 | 2.29 | 3.32 | 2.21 | 3.97 | 4.82
8 | AUUACCCCGGUCGUCGAGUGA [Fam2.1 aminoacylation ribozyme variant] | 2.06 | 0.914 | 1.39 | 1 | 1.41 | 0.938
9 | AUUACCCGCGUCAUCGAGUGA [Fam2.1 aminoacylation ribozyme variant] | 24.9 | 2.37 | 4.55 | 2.8 | 4.6 | 5.55
10 | AUUACCCGGGGCAUCGAGUGA [Fam2.1 aminoacylation ribozyme variant] | 62.9 | 5.21 | 8.31 | 4.54 | 10.2 | 11.5
11 | AUUACCCGGGUCACCGAGUGA [Fam2.1 aminoacylation ribozyme variant] | 145 | 6.79 | 19.3 | 8.28 | 21.4 | 19.5
12 | AUUACCCGGGUCAUCGAAUGA [Fam2.1 aminoacylation ribozyme variant] | 0.592 | 1 | 0.972 | 1.29 | 1.25 | 0.515
13 | AUUACCCGGGUCAUCGAGUCA [Fam2.1 aminoacylation ribozyme variant] | 1.05 | 1.29 | 1.32 | 1.16 | 1.22 | 0.967
14 | AUUACCCUACUCAUCGAGUGA [Fam2.1 aminoacylation ribozyme variant] | 35.1 | 3.24 | 7.19 | 3.19 | 6.54 | 9
15 | AUUACCCUAGGUCAUCGGGUG [Fam2.2 aminoacylation ribozyme variant] | 51.7 | 5.23 | 8.02 | 5.13 | 11.9 | 8.1
16 | AUUACCCUAGUAAUCGAGUGA [Fam2.1 aminoacylation ribozyme variant] | 46.5 | 3.08 | 6.75 | 3.18 | 7.45 | 9.47
17 | AUUACCCUAGUCAACGAGUGA [Fam2.1 aminoacylation ribozyme variant] | 25.6 | 3.09 | 5.11 | 3.26 | 5.35 | 6.9
18 | AUUACCCUAGUCAUAGAGUGA [Fam2.1 aminoacylation ribozyme variant] | 32.7 | 4.22 | 7.98 | 3.95 | 7.72 | 9.37
19 | AUUACCCUAGUCAUCCAGUGA [Fam2.1 aminoacylation ribozyme variant] | 3.4 | 1.91 | 2.29 | 1.94 | 2.86 | 3.28
20 | AUUACCCUAGUCAUCGAGUAA [Fam2.1 aminoacylation ribozyme variant] | 0.698 | 1.28 | 1.36 | 1.24 | 1.19 | 0.823
21 | AUUACCCUAGUCAUCGAGUGU [Fam2.1 aminoacylation ribozyme variant] | 6.11 | 1.95 | 2.47 | 1.95 | 2.55 | 2.62
22 | AUUACCCUAGUCAUCGGGUGA [Fam2.1 aminoacylation ribozyme variant] | 49.2 | 4.76 | 7.55 | 4.8 | 8.62 | 9.08
23 | AUUACCCUAGUCAUGGAGUGA [Fam2.1 aminoacylation ribozyme variant] | 15.5 | 2.79 | 4.31 | 2.68 | 4.06 | 5.17
24 | AUUACCCUCGUAAUCGAGUGA [Fam2.1 aminoacylation ribozyme variant] | 120 | 6.62 | 16 | 7.73 | 17.2 | 21.7
25 | AUUACCCUCGUCACCGAGUGA [Fam2.1 aminoacylation ribozyme variant] | 21.2 | 2.33 | 4.34 | 2.74 | 4.63 | 5.5
26 | AUUACCCUCGUCAUCGACUGA [Fam2.1 aminoacylation ribozyme variant] | 0.811 | 0.735 | 0.868 | 0.877 | 0.644 | 0.555

Row | Sequence | self-aminoacylation (biotinyl-Phe-oxazolone) | self-aminoacylation (biotinyl-Ile-oxazolone) | self-aminoacylation (biotinyl-Met-oxazolone) | self-aminoacylation (biotinyl-Val-oxazolone) | self-aminoacylation (biotinyl-Leu-oxazolone) | self-aminoacylation (biotinyl-Trp-oxazolone)
27 | AUUACCCUCGUCCUCGAGUGA [Fam2.1 aminoacylation ribozyme variant] | 34.7 | 2.48 | 4.67 | 2.4 | 5.49 | 6.18
28 | AUUACCCUCGUCUUCGAGUGA [Fam2.1 aminoacylation ribozyme variant] | 29.4 | 2.8 | 5.15 | 3.24 | 5.17 | 7.17
29 | AUUACCCUGAUCACCGAGUGA [Fam2.1 aminoacylation ribozyme variant] | 42.1 | 3.08 | 7.33 | 3.74 | 7.42 | 6.75
30 | AUUACCCUGAUCAUCGAGUAA [Fam2.1 aminoacylation ribozyme variant] | 1.09 | 1.25 | 1.33 | 1.32 | 1.02 | 0.877
31 | AUUACCCUGAUCAUCGAGUGU [Fam2.1 aminoacylation ribozyme variant] | 5.33 | 1.81 | 4.23 | 2.24 | 3.28 | 5.04
32 | AUUACCCUGAUCAUCGCGUGA [Fam2.1 aminoacylation ribozyme variant] | 99.5 | 5.83 | 14.7 | 7.01 | 14.1 | 14.9
33 | AUUACCCUGAUCAUCUAGUGA [Fam2.1 aminoacylation ribozyme variant] | 56.9 | 5.67 | 13.5 | 6.47 | 11.2 | 15.6
34 | AUUACCCUGAUCAUGGAGUGA [Fam2.1 aminoacylation ribozyme variant] | 53.6 | 4.86 | 10.8 | 4.92 | 10.5 | 13
35 | AUUACCCUGAUCGUCGAGUGA [Fam2.1 aminoacylation ribozyme variant] | 0.434 | 0.89 | 0.75 | 0.862 | 0.865 | 0.86
36 | AUUACCCUGAUUAUCGAGUGA [Fam2.1 aminoacylation ribozyme variant] | 117 | 7.51 | 17.9 | 7.28 | 17.4 | 22
37 | AUUACCCUGCCCAUCGAGUGA [Fam2.1 aminoacylation ribozyme variant] | 38.9 | 2.94 | 5.7 | 3.23 | 5.53 | 6.52
38 | AUUACCCUGCUCAGCGAGUGA [Fam2.1 aminoacylation ribozyme variant] | 18.5 | 2.24 | 3.61 | 2.76 | 3.79 | 4.77
39 | AUUACCCUGCUCAUAGAGUGA [Fam2.1 aminoacylation ribozyme variant] | 57.5 | 3.87 | 9.74 | 4.28 | 8.96 | 10.7
40 | AUUACCCUGCUCAUCGAAUGA [Fam2.1 aminoacylation ribozyme variant] | 0.772 | 0.867 | 0.845 | 0.974 | 0.735 | 1.32
41 | AUUACCCUGCUCGUCGAGUGA [Fam2.1 aminoacylation ribozyme variant] | 0.752 | 0.725 | 0.533 | 0.766 | 0.689 | 0.43
42 | AUUACCCUGCUUAUCGAGUGA [Fam2.1 aminoacylation ribozyme variant] | 2.4 | 1.29 | 1.64 | 1.37 | 1.96 | 2.33
43 | AUUACCCUGGAAAUCGAGUGA [Fam2.1 aminoacylation ribozyme variant] | 149 | 8.3 | 19.4 | 8.39 | 20.8 | 22.6
44 | AUUACCCUGGACACCGAGUGA [Fam2.1 aminoacylation ribozyme variant] | 4.62 | 2.15 | 4.14 | 1.83 | 3.5 | 3.99
45 | AUUACCCUGGACAUGGAGUGA [Fam2.1 aminoacylation ribozyme variant] | 57.2 | 3.74 | 8.57 | 3.69 | 9.2 | 10.6
46 | AUUACCCUGGCCAUCCAGUGA [Fam2.1 aminoacylation ribozyme variant] | 35.9 | 4.38 | 7.34 | 4.01 | 8.23 | 7.75
47 | AUUACCCUGGCCAUCGAAUGA [Fam2.1 aminoacylation ribozyme variant] | 1.84 | 1 | 0.928 | 1.31 | 1.4 | 0.331
48 | AUUACCCUGGCCAUCGAGUGG [Fam2.1 aminoacylation ribozyme variant] | 2.71 | 1.26 | 1.72 | 1.17 | 1.95 | 1.66
49 | AUUACCCUGGCCAUCGCGUGA [Fam2.1 aminoacylation ribozyme variant] | 56.3 | 4.28 | 6.31 | 4.81 | 11 | 8.64
50 | AUUACCCUGGCCAUCGGGUGA [Fam2.1 aminoacylation ribozyme variant] | 49.1 | 3.8 | 8.01 | 6.42 | 9.65 | 11.8
51 | AUUACCCUGGCCCUCGAGUGA [Fam2.1 aminoacylation ribozyme variant] | 24.1 | 2.5 | 4.04 | 3.42 | 4.5 | 3.6
